This passage reports fold enrichment (log2) results from US20220143214A1.

The target in experiment [1] is LY6C1 (Ly6c1, C57BL/6J mouse, splice variant 1) (mouse (C57BL/6J)) (UniProt P0CW02). As to the kind of experiment: AAV library bound to Ly6c1-transfected HEK293T cells, NGS.
Experiment [2] has as its target LY6A (Ly6a, C57BL/6J mouse) (mouse (C57BL/6J)) (UniProt P05533). As to the kind of experiment: AAV library bound to Ly6a-transfected HEK293T cells, NGS.

“And” between values parts separate entries of the source, which are not always exact repeats. Equal values may be shown once.

Sequence of UniProt P05533 (P05533 27-112 limits assumed): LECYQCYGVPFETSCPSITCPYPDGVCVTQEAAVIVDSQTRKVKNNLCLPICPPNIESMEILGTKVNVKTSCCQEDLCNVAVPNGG
Sequence of UniProt P0CW02 (P0CW02 27-109 limits assumed, change not shown): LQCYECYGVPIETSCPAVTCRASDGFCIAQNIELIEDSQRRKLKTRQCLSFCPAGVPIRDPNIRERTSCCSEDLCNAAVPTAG

Take AAV9 K449R 7-mer variant DTKWSSS: the fold enrichment (log2) in experiment [1] amounted to 4.11 log2; in experiment [2], 0.53 log2.

Consider AAV9 K449R 7-mer variant SLSKPFS, for which the figures for the fold enrichment (log2) in experiment [1] and in experiment [2] were -2.08 log2 and 2.19 log2, respectively.

For the substance AAV9 K449R 7-mer variant TKSTPFI, the fold enrichment (log2) in experiment [1] was -1.85 log2; in experiment [2] it was 2.6 log2.

Turning to AAV9 K449R 7-mer variant LKTGMSS, the fold enrichment (log2) in experiment [1] is 2.74 log2; in experiment [2], -0.66 log2.

In the case of AAV9 K449R 7-mer variant TQQGYSS, the fold enrichment (log2) is 5.8 log2 in experiment [1] and -0.92 log2 in experiment [2].

For AAV9 K449R 7-mer variant SSEKPFQ, the fold enrichment (log2) in experiment [1] is -3.55 log2; in experiment [2], 2.69 log2.

Take AAV9 K449R 7-mer variant QHFGQSS: the fold enrichment (log2) is 4.68 log2 in experiment [1] and -0.37 log2 in experiment [2].

For AAV9 K449R 7-mer variant ASSKPFL, the fold enrichment (log2) in experiment [1] worked out at 1.19 log2; in experiment [2], 3.9 log2.

As for AAV9 K449R 7-mer variant MNIGYSA, the values for the fold enrichment (log2) in experiment [1] and in experiment [2] were 2.4 log2 and -1.48 log2, respectively.

On to AAV9 K449R 7-mer variant LRTAYSS, for which the fold enrichment (log2) in experiment [1] stood at 5.12 log2; in experiment [2] it was 1.13 log2.

Turning to AAV9 K449R 7-mer variant TYGGYSQ, the figures for the fold enrichment (log2) in experiment [1] and in experiment [2] were 2.02 log2 and -0.34 log2, respectively.

On to AAV9 K449R 7-mer variant LRMGASS, for which the fold enrichment (log2) in experiment [1] was 4.17 log2; in experiment [2] it was 0.91 log2.

For the substance AAV9 K449R 7-mer variant VRPGWST, the fold enrichment (log2) in experiment [1] was 5.89 log2; in experiment [2] it was 1.02 log2.

Consider AAV9 K449R 7-mer variant VKVGFSS, for which the results for the fold enrichment (log2) in experiment [1] and in experiment [2] were 4.22 log2 and -2.25 log2, respectively.

In the case of AAV9 K449R 7-mer variant STTFKDI, the fold enrichment (log2) is -3.32 log2 in experiment [1] and 3.44 log2 in experiment [2].

Regarding AAV9 K449R 7-mer variant TSMKPFL, the fold enrichment (log2) in experiment [1] was -0.98 log2; in experiment [2], 3.49 log2.

With AAV9 K449R 7-mer variant MERYGSS, the values for the fold enrichment (log2) in experiment [1] and in experiment [2] were 3.83 log2 and -2.28 log2, respectively.

Take AAV9 K449R 7-mer variant VAERPFK: the fold enrichment (log2) in experiment [1] stood at 1.22 log2; in experiment [2] it was 6.38 log2.

AAV9 K449R 7-mer variant TITFKDV: the values for the fold enrichment (log2) in experiment [1] and in experiment [2] were -0.78 log2 and 5.15 log2, respectively.

For the substance AAV9 K449R 7-mer variant YENRPFV, the fold enrichment (log2) is -3.32 log2 in experiment [1] and 2.23 log2 in experiment [2].

Take AAV9 K449R 7-mer variant QTLFKNI: the fold enrichment (log2) is -0.72 log2 in experiment [1] and 3.07 log2 in experiment [2].

As for AAV9 K449R 7-mer variant GVDRPFK, the results for the fold enrichment (log2) in experiment [1] and in experiment [2] were -1.13 log2 and 3.84 log2, respectively.

As to AAV9 K449R 7-mer variant NMERPFR, the fold enrichment (log2) amounted to 0.95 log2 in experiment [1] and 2.96 log2 in experiment [2].

On to AAV9 K449R 7-mer variant NDQRPFL, for which the fold enrichment (log2) in experiment [1] was -4.33 log2; in experiment [2], 3.27 log2.

With AAV9 K449R 7-mer variant DKQKPFL, the fold enrichment (log2) in experiment [1] came to 0.94 log2; in experiment [2], 4.6 log2.

On to AAV9 K449R 7-mer variant ALAKPFI, for which the values for the fold enrichment (log2) in experiment [1] and in experiment [2] were -0.19 log2 and 1.91 log2, respectively.

AAV9 K449R 7-mer variant DSQRPFI: the values for the fold enrichment (log2) in experiment [1] and in experiment [2] were -3.55 log2 and 2.63 log2, respectively.

As to AAV9 K449R 7-mer variant AADRPFL, the fold enrichment (log2) in experiment [1] was -3.32 log2; in experiment [2], 2.73 log2.

As to AAV9 K449R 7-mer variant LSKGLSS, the fold enrichment (log2) in experiment [1] is 3.55 log2; in experiment [2], -3.55 log2.

Turning to AAV9 K449R 7-mer variant VAVFKNV, the fold enrichment (log2) in experiment [1] is -0.91 log2; in experiment [2] it was 4.23 log2.

As to AAV9 K449R 7-mer variant WRQGYAS, the fold enrichment (log2) in experiment [1] was 2.89 log2; in experiment [2], -0.09 log2.

Consider AAV9 K449R 7-mer variant AKAGYAS, for which the fold enrichment (log2) in experiment [1] is 4.54 log2; in experiment [2], -0.03 log2.

As to AAV9 K449R 7-mer variant VKGGYSS, the fold enrichment (log2) in experiment [1] is 3.3 log2; in experiment [2], 0.07 log2.

Consider AAV9 K449R 7-mer variant TRFGSST, for which the fold enrichment (log2) in experiment [1] came to 3.63 log2; in experiment [2] it was 1.29 log2.

As to AAV9 K449R 7-mer variant TEKWTSS, the fold enrichment (log2) in experiment [1] worked out at 4.43 log2; in experiment [2] it was 0.98 log2.

In the case of AAV9 K449R 7-mer variant TVMAPFK, the fold enrichment (log2) is -0.19 log2 in experiment [1] and 5.53 log2 in experiment [2].

Turning to AAV9 K449R 7-mer variant LWAKGST, the fold enrichment (log2) in experiment [1] was 3.9 log2; in experiment [2], 1.42 log2.

For AAV9 K449R 7-mer variant KQYQGST, the fold enrichment (log2) worked out at 4.88 log2 in experiment [1] and 1.54 log2 in experiment [2].

In the case of AAV9 K449R 7-mer variant SEGRPFI, the fold enrichment (log2) is -3.55 log2 in experiment [1] and 1.85 log2 in experiment [2].

AAV9 K449R 7-mer variant STRGYSA: the fold enrichment (log2) in experiment [1] stood at 3.55 log2; in experiment [2] it was 1.08 log2.

With AAV9 K449R 7-mer variant RSDFKDI, the values for the fold enrichment (log2) in experiment [1] and in experiment [2] were -2.44 log2 and 3.45 log2, respectively.

In the case of AAV9 K449R 7-mer variant LLRGASS, the figures for the fold enrichment (log2) in experiment [1] and in experiment [2] were 2.96 log2 and -0.33 log2, respectively.

As for AAV9 K449R 7-mer variant MMAKPFL, the fold enrichment (log2) was -0.49 log2 in experiment [1] and 4.53 log2 in experiment [2].

Take AAV9 K449R 7-mer variant IRQGYSS: the figures for the fold enrichment (log2) in experiment [1] and in experiment [2] were 2.61 log2 and -1.28 log2, respectively.

AAV9 K449R 7-mer variant TKSGYST: the fold enrichment (log2) turned out to be 5.71 log2 in experiment [1] and 0.68 log2 in experiment [2].

Regarding AAV9 K449R 7-mer variant LTKWEST, the fold enrichment (log2) is 3.91 log2 in experiment [1] and 0.82 log2 in experiment [2].

AAV9 K449R 7-mer variant SLDFKNI: the fold enrichment (log2) is -1.29 log2 in experiment [1] and 4.61 log2 in experiment [2].

As for AAV9 K449R 7-mer variant AISAPFK, the fold enrichment (log2) was -0.06 log2 in experiment [1] and 2.56 log2 in experiment [2].

As to AAV9 K449R 7-mer variant YLKGYSA, the fold enrichment (log2) in experiment [1] amounted to 4.46 log2; in experiment [2] it was 0.15 log2.

For AAV9 K449R 7-mer variant NYTGYSS, in experiment [1], the fold enrichment (log2) was 4.83 log2 and 4.44 log2.

In the case of AAV9 K449R 7-mer variant SHTKPFA, the fold enrichment (log2) in experiment [1] was found to be 0.97 log2; in experiment [2], 4.79 log2.

Consider AAV9 K449R 7-mer variant HTQGYST, for which the fold enrichment (log2) is 2.26 log2 in experiment [1] and -3.32 log2 in experiment [2].

AAV9 K449R 7-mer variant QNARPFV: the fold enrichment (log2) in experiment [1] worked out at 1.42 log2; in experiment [2], 1.52 log2.

For AAV9 K449R 7-mer variant SSTGYSS, the values for the fold enrichment (log2) in experiment [1] and in experiment [2] were 4 log2 and -1.93 log2, respectively.

For the substance AAV9 K449R 7-mer variant NKVGYST, the fold enrichment (log2) in experiment [1] was 3.13 log2; in experiment [2], -3.74 log2.

Turning to AAV9 K449R 7-mer variant SKTGYST, the fold enrichment (log2) was 4.43 log2 in experiment [1] and -3.55 log2 in experiment [2].

With AAV9 K449R 7-mer variant QSAGYST, the fold enrichment (log2) in experiment [1] is 2.55 log2; in experiment [2], -1.58 log2.

Consider AAV9 K449R 7-mer variant AGSFKDI, for which the fold enrichment (log2) is -2.87 log2 in experiment [1] and 3.96 log2 in experiment [2].

Consider AAV9 K449R 7-mer variant SQKTPFL, for which the fold enrichment (log2) in experiment [1] is -3.55 log2; in experiment [2], 3.81 log2.

In the case of AAV9 K449R 7-mer variant TRFGAST, the figures for the fold enrichment (log2) in experiment [1] and in experiment [2] were 4.32 log2 and 0 log2, respectively.

In the case of AAV9 K449R 7-mer variant LYAGRSS, the fold enrichment (log2) came out at 4.13 log2 in experiment [1] and 1.03 log2 in experiment [2].

With AAV9 K449R 7-mer variant GESRPFI, the fold enrichment (log2) was -2.08 log2 in experiment [1] and 3.32 log2 in experiment [2].

With AAV9 K449R 7-mer variant TRTSGAS, the fold enrichment (log2) in experiment [1] was found to be 3.85 log2; in experiment [2], 0.43 log2.

For the substance AAV9 K449R 7-mer variant PPSFKNV, the figures for the fold enrichment (log2) in experiment [1] and in experiment [2] were -4.33 log2 and 3.69 log2, respectively.

As to AAV9 K449R 7-mer variant NRGGYAS, the fold enrichment (log2) in experiment [1] is 4.53 log2; in experiment [2], -0.18 log2.

With AAV9 K449R 7-mer variant EIRGYSS, the fold enrichment (log2) was 4.92 log2 in experiment [1] and 0.75 log2 in experiment [2].

Take AAV9 K449R 7-mer variant SNDRPFI: the values for the fold enrichment (log2) in experiment [1] and in experiment [2] were -1.02 log2 and 5.43 log2, respectively.

On to AAV9 K449R 7-mer variant TGTSPFK, for which the fold enrichment (log2) in experiment [1] was -3.32 log2; in experiment [2], 2.22 log2.

For the substance AAV9 K449R 7-mer variant GKHFSST, the fold enrichment (log2) came to 4.25 log2 in experiment [1] and 2.64 log2 in experiment [2].

On to AAV9 K449R 7-mer variant DRKGYSA, for which the fold enrichment (log2) is 2.77 log2 in experiment [1] and -0.39 log2 in experiment [2].

In the case of AAV9 K449R 7-mer variant TLAYPFK, the fold enrichment (log2) in experiment [1] is -0.72 log2; in experiment [2], 3.93 log2.

In the case of AAV9 K449R 7-mer variant GKTGYST, the fold enrichment (log2) in experiment [1] is 2.93 log2; in experiment [2] it was -3.32 log2.

On to AAV9 K449R 7-mer variant IRVGYST, for which the fold enrichment (log2) in experiment [1] is 3.46 log2; in experiment [2], -3.55 log2.
